Tests used:
[1] = system: CNA gamma C-terminal fragment; test: Yeast two-hybrid assays of R5G42 mutants; format: binding, human; conditions: plasmids pSH18-34, pJK103, pRB18-40
Method: The capacity of R5G42 mutants having a one amino acid change as compared to R5G42 to bind CNA beta and gamma C-Terminal fragments (FIG. 3b) and NS5A-TP2 was tested in yeast two-hybrid assays. CNA beta and gamma C-Terminal fragments and NS5A-TP2 were cloned in three different vectors (pSH18-34, pJK103 and pRB18-40). These three plasmids differ from each other in the level of sensitivity of their promoter, pSH18-34 having the highest sensitivity and pRB18-40 having the lowest.
The inventors explored the ability of R5G42 mutants having a one amino acid change as compared to R5G42, to bind to CNA beta and gamma C-Terminal fragments (FIG. 3b) and to NS5A-TP2. To this end, they proceeded to yeast-two hybrid assays as in example 3. CNA beta and gamma C-Terminal fragments (FIG. 3b) and NS5A-TP2 were cloned in three different plasmids (pSH18-34, pJK103 and pRB18-40), which differed from each other in the level of sensitivity of their promoter to the bait/prey complex formation, pSH18-34 having the highest sensitivity and pRB18-40 having the lowest.

[2] = target: T1, NS5A-TP2 (Homo sapiens, UniProt Q7Z4H3); test: Further yeast two-hybrid binding assays (higher sensitivity)
T1 construct: expressed in transfected cells; host or cells: yeast
T1 sequence (Q7Z4H3 1-204): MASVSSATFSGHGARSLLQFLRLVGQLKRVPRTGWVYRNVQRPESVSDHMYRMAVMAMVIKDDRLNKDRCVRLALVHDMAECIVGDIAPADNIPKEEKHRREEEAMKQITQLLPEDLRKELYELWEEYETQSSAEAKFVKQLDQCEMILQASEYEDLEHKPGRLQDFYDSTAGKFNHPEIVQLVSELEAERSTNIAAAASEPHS
Excerpt: FIG. 14. Specificity of aptamers according to the invention for CNA and NS5A-TP2 Interaction matrix between peptide aptamers R5G42, C2, C7, C8, N9, R5G44 and R5G52 with CNA constructs CNA1-CNA8 (A) CNA9-11 (B) and NS5A-TP2 (C). An interaction phenotype between CNA3/CNA 11, which both contain the Calmodulin binding domain (CaM) and the auto-inhibitory domain (Al) but not the CNB binding domain (CNB) and the aptamers R5G42, C2, C7, C8 and N9 is observed in a two-hybrid assay. R5G44 and R5G52 aptamers recognize neither the CNA fragments, nor NS5A-TP2. Only aptamers R5G42 and N9 recognize NS5A-TP2.
The inventors proceeded to further yeast two-hybrid binding assays between peptide aptamers R5G42 (SEQ ID 22), C2 (SEQ ID 23), C7 (SEQ ID 27), C8 (SEQ ID 28), N9 (SEQ ID 33), R5G44 and R5G52 with CNA constructs CNA1-CNA8 (FIG. 14A), CNA9-CNA11 (FIG. 14B) and NS5A-TP2 (SEQ ID 15) (FIG. 14C). The sensitivity of this yeast two-hybrid assay was higher than in the experiment reported above.

[3] = system: Raw1 cells (osteoclasts precursors); test: Raw cell differentiation assay (osteoclast differentiation); format: cell-based; conditions: 4 days post-transfection, absence of RANKL
Excerpt: Trx, CNA* and Peptide aptamers R5G42, C2, C7, C8 and N9 were transfected into RAW1 cells and left for four days in absence of the normal differentiation factor RANKL. CNA* is activated calcineurin A which elicits a robust differentiation response.
The inventors assessed the ability of some CNA-specific peptide aptamers to promote osteoclast differentiation via the activation of CNA. […] The differentiation state was then observed 4 days post-transfection.
Raw1 cells were transfected with the following plasmids: pCI-HA-Trx (negative control), pCI-HA CNA* (positive control for differentiation activation), pCI-HA R5G42, pCI-HA R5G42-C2, pCI-HA R5G42-C7, pCI-HA R5G42-C8 and pCI-HA R5G42-N9. The sequence of CNA* is the same as that of CNA8 (see FIG. 17, SEQ ID 42). The sequences of the R5G42 (SEQ ID 22), C2 (SEQ ID 23), C7 (SEQ ID 27), C8 (SEQ ID 28) and N9 (SEQ ID 33) aptamers is shown on FIG. 8.
One day before the transfection, Raw I cells were plated in 6-well dishes at 50 cell/mm^2. Transfection was performed with FuGene 6 Reagent (Roche) using 2 μg of each plasmid and following supplier recommendations.
8 h after transfection D-MEM was changed with α-MEM. In the control dishes α-MEM+50 ng/ml RANKL was added. After 2 days, medium was changed with a fresh medium. The differentiation state was then observed 4 days post-transfection.

CNA gamma C-terminal fragment, sequence (P48454 386-512 limits assumed): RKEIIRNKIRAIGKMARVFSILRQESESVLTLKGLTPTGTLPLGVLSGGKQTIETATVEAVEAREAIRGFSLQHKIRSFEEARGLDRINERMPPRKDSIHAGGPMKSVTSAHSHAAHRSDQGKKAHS

recognition of NS5A-TP2 [2]: recognized NS5A-TP2
B1: N9: R5G42 mutant having a one amino acid change (SEQ ID 33) (protein)
chain: MVKQIESKTAFQEALDAAGDKLVVVDFSAAWCGPSAVTFAVCALGPCKMIKPFFHSLSEKYSNVIFLEVDVDDCQDVASECEVKCMPTFQFFKKGQKVGEFSGANKEKLEATINELV
modifications: Aptamer R5G42 mutant N9
yeast two-hybrid interaction [1]: not with the CNA beta and gamma C-terminal fragments | osteoclast differentiation [3]: no osteoclasts fully differentiated were detectable

Reference: patent publication US8440804B2, “Polypeptides having modulatory effects on cells” (Ecole Normale Superieure de Lyon, priority 2006, dated 2013)
